Legend:
Kv2.1 channel = target: T1, Kv2.1 channel (Rattus norvegicus, UniProt P15387); assay: Inhibition of Kv2.1 channel currents in Xenopus oocytes (two-electrode voltage clamp), apparent affinity; assay type: cell-based
T1 construct: expressed in transfected cells; host or cells: Xenopus laevis oocytes, cRNA injection
T1 sequence (P15387 1-857): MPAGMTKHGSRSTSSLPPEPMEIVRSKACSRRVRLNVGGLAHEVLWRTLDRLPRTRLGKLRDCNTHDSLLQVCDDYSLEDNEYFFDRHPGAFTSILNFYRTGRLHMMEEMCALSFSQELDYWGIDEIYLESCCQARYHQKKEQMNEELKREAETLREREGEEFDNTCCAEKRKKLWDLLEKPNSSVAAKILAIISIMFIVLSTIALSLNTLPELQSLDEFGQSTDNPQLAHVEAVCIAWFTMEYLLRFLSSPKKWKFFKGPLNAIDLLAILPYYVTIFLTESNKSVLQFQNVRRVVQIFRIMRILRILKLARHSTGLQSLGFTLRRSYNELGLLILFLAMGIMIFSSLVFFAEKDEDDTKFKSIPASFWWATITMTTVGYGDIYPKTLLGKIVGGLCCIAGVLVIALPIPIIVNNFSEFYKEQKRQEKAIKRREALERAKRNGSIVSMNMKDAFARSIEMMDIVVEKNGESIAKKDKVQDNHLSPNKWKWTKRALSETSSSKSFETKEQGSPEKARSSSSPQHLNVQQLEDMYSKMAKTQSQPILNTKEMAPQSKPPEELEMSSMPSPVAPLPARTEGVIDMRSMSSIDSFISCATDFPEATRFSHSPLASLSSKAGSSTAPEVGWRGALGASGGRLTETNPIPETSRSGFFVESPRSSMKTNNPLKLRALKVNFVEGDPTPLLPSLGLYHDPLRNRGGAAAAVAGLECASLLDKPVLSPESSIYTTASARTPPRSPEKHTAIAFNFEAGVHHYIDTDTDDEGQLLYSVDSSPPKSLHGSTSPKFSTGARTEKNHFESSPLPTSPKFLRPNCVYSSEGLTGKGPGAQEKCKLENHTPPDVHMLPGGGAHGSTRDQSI

[1] = Membrane partitioning into lipid vesicles detected with intrinsic Trp fluorescence (blue shift); assay type: physicochemical; conditions: lipid vesicles POPC:POPG 1:1
Description: Large unilamellar vesicles (LUVs) were prepared by drying the phospholipids from a chloroform solution under a nitrogen stream. The dried lipid film was rehydrated in buffer containing 10 mM HEPES, 1 mM EDTA, pH 7.6 (HEB). The resulting dispersions were extruded through 100 nm pore size polycarbonate filters (Millipore Corp.) till the solution became clear. All fluorescence measurements were performed in quartz cuvettes with 1 cm path length. Fluorescence spectra (averaging three spectra) were recorded between 300 and 450 nm (5 nm band pass, 0° polarizer) using an excitation wavelength of 280 nm (5 nm band pass, 90° polarizer) (SPEX FluoroMax 3 spectrofluorometer) and corrected for vesicle scattering. […] Mole-fraction partitioning coefficients (Kx) were calculated by measuring the fluorescence intensity (F) at 320 nm and normalizing to the zero lipid fluorescence intensity (F0) ([Ladokhin et al., 2000]; [Milescu et al., 2007]). Kx was calculated based on the best fits of the following equation to the data: F/F0(L) = 1 + (F/F0^max − 1)Kx[L]/([W] + Kx[L]), where F/F0(L) is the change in fluorescence intensity for a given concentration of lipid, F/F0^max is the maximum fluorescence increase at high lipid concentrations, [L] is the average available lipid concentration (60% of total lipid concentration) and [W] is the molar concentration of water (55.3 M).

[2] = Acrylamide quenching of Trp fluorescence (Stern-Volmer), protection by lipid vesicles; assay type: physicochemical; conditions: n = 3
Description: (§1) Protection of tryptophan fluorescence from acrylamide quenching was examined in the absence and presence of lipids (toxin: lipid = 1:500) by titration with increasing concentrations of acrylamide ([Milescu et al., 2007]). The Stern–Volmer quenching constant (KSV) was calculated based on the best fits of the following equation to the data: F0/F = 1 + KSV[Q], where F0 and F are fluorescence of the toxin in the absence and presence of acrylamide, and [Q] is the concentration of acrylamide. […] A solution containing ∼ 2 µM toxin and 0.3 M acrylamide was stirred continuously with addition of increasing concentrations of LUVs composed of 1:1 mixture of POPC and POPG. Fluorescence spectra (averaging three spectra) were recorded between 300 and 450 nm (5 nm band pass, 0° polarizer) using an excitation wavelength of 280 nm (5 nm band pass, 90° polarizer) (SPEX FluoroMax 3 spectrofluorometer) and corrected for vesicle scattering. For calculating mole–fraction partitioning coefficients (Kdx), the maximal fluorescence intensity (F at λmax) was measured and normalized to the zero lipid fluorescence intensity (F0). […]

[3] = Acrylamide dequenching by lipid vesicles (quenching-enhanced fluorescence titration); assay type: physicochemical; conditions: LUVs POPC:POPG 1:1
Description: as §1

[4] = Depth-dependent quenching of Trp fluorescence by brominated (diBr) phosphatidylcholines; assay type: physicochemical; conditions: 6,7-, 9,10- or 11,12-diBr PC : POPG 1:1 vesicles, 1.2 mM lipid
Description: For depth-dependent fluorescence quenching experiments with brominated lipids, LUVs contained a 1:1 molar ratio of POPG and POPC 6,7-, 9,10-, or 11,12-1-palmitoyl-2-stearoyl(dibromo)-sn-glycero-3-phosphocholine (diBr; Avanti Polar Lipids, Alabaster, AL). Fluorescence spectra were recorded between 300 and 450 nm using an excitation wavelength of 280 nm, corrected for vesicle scattering and normalized to the zero lipid fluorescence intensity.

Kv2.1-ASIC1a chimeras = assay: Effect of PcTx1 on G-V relations of Kv2.1-ASIC1a chimeras in oocytes; assay type: cell-based; conditions: 5 µM PcTx1, extracellular application, external 50 mM KCl, n = 3
Text: Chimeras were generated using sequential PCR with the Kv2.1∆7 channel ([Li-Smerin and Swartz, 1998]) as template. Primers encoding the 9-amino acid sequence of helix-5 from ASIC1a were utilized for overlap PCR. The DNA sequence of all constructs and mutants was confirmed by automated DNA sequencing. Complementary RNA (cRNA) was synthesized using T7 polymerase (mMessage mMachine kit; Ambion) after linearizing the DNA with appropriate restriction enzymes.
Oocytes from Xenopus laevis were removed surgically and incubated with agitation for 1 hr in a solution containing (in mM) 82.5 NaCl, 2.5 KCl, 1 MgCl2, 5 HEPES, pH 7.6 (with NaOH), and collagenase (2 mg/ml; Worthington Biochemical). Defolliculated oocytes were injected with cRNA encoding the Kv2.1 channel constructs and incubated at 17°C in a solution containing (in mM) 96 NaCl, 2 KCl, 1 MgCl2, 1.8 CaCl2, 5 HEPES, pH 7.6 with NaOH, and gentamicin (50 μg/ml, GIBCO-BRL), for 16–72 hr before electrophysiological recording. Oocyte membrane voltage was controlled using an OC-725C oocyte clamp (Warner Instruments). Data were filtered at 1 kHz and digitized at 10 kHz. Microelectrode resistances were 0.1–1 MΩ when filled with 3 M KCl. […] All experiments were performed at room temperature (∼22°C). Voltage-activations relationships in the absence and presence of different concentrations of the synthesized toxin were recorded. […]

ASIC1a = conditions: ref Chen et al., 2006; Dawson et al., 2012; cited from earlier work
Text: PcTx1 also contains an Arg finger motif composed of R26, R27 and R28 that is required for […] of ASIC through interactions with channel residues situated in a crevice between subunits. In the case of voltage-sensor toxins such as hanatoxin and GxTx-1E, the S3b helix within the voltage-sensing domains of Kv channels co ...

[5] = analysis of quenching profiles with brominated lipids; ref Phillips et al., 2005; Swartz, 2007; Jung et al., 2010; Mihailescu et al., 2014; cited from earlier work
Text: The results thus far reveal that both classes of tarantula toxins interact quite favorably with lipid membranes. […] For example, the solvent accessible surface area for the hydrophobic surface of PcTx1 is 380 Å^2, which compares with a value of 703 Å^2 for GxTx-1E. In addition, the hydrophobic surfaces on the two toxins are situated on distinct surfaces (Figure 1D,E). These differences between PcTx1 an ...

In the case of `CC(C)C[C@@H]1NC(=O)CNC(=O)[C@H](Cc2c[nH]c3ccccc23)NC(=O)[C@H](CCCCN)NC(=O)[C@@H]2CCCN2C(=O)[C@H](CO)NC(=O)[C@@H]2CSSC[C@@H]3NC(=O)[C@H](CCCCN)NC(=O)[C@H](Cc4c[nH]c5ccccc45)NC(=O)[C@H](Cc4c[nH]c5ccccc45)NC(=O)[C@H](Cc4ccccc4)NC(=O)CNC(=O)CNC(=O)[C@@H](NC(=O)[C@H](CCC(=O)O)NC(=O)CNC(=O)[C@@H](N)CCC(=O)O)CSSC[C@H](NC(=O)[C@H](CSSC[C@@H](C(=O)N[C@@H](CC(N)=O)C(=O)N[C@@H](Cc4ccccc4)C(=O)N4CCC[C@H]4C(=O)N[C@@H](C)C(=O)N4CCC[C@H]4C(=O)O)NC1=O)NC(=O)[C@H](C)NC(=O)[C@@H]1CCCN1C(=O)[C@H](CCCCN)NC(=O)CNC(=O)[C@H](CO)NC(=O)CNC3=O)C(=O)N1CCC[C@H]1C(=O)N[C@@H](CCCCN)C(=O)N[C@@H](Cc1ccc(O)cc1)C(=O)N[C@@H](C(C)C)C(=O)N2` [Nle35A], the “∆∆G (perturbation energy)” value (Kv2.1 channel; from apparent Kd of mutant vs GxTx-1E(Nle), Kv2.1 in oocytes) is reported as 0.19 kcal/mol.

For PcTx1, the “effect on the Kv2.1 channel (G-V relation)” value (Kv2.1 channel; 5 µM PcTx1, oocytes, external solution 50 mM KCl, tail currents, n = 3) was “no effect”, the “maximal blue shift of Trp emission spectrum upon addition of lipid vesicles” value [1] was ~2 nm and the “Ksv (Stern–Volmer constant), acrylamide quenching in aqueous solution” value ([2]; toxin ∼2 µM in solution, no lipid) was 29.2 M⁻¹. For the same molecule, the “Ksv (Stern–Volmer constant), acrylamide quenching in presence of lipid vesicles” value ([2]; toxin ∼2 µM with 1.0 mM POPC:POPG 1:1 vesicles (toxin:lipid 1:500)) was 11.2 M⁻¹, the “Kdx (mole-fraction partitioning coefficient from acrylamide dequenching)” value ([3]; maximal fluorescence intensity vs available lipid, ∼2 µM toxin, acrylamide 0.2 M / 0.3 M (methods), mean ± SEM (n = 3)) was “(4.3 ± 0.6) × 10^6” and the “F/F0^max (dequenching function fit)” value ([3]; maximum fluorescence increase at highest lipid concentration, acrylamide present) was 2.7 ± 0.08. The “quenching of Trp fluorescence by brominated lipids (in words)” value [4] was “very weak quenching”, the “effect on activity of five Kv2.1-ASIC1a chimeras (G-V relations)” value (Kv2.1-ASIC1a chimeras) was “no discernible effect” and the “affinity for ASIC1a (in words)” value (ASIC1a) was “nM affinity”.

For hanatoxin, the “position of Trp residues from the center of the bilayer” value [5] is given as 8–9 Å.

Reference: paper PMC4423116, “Tarantula toxins use common surfaces for interacting with Kv and ASIC ion channels” (eLife, 2015)
